The target of one test is IFN-αG (human, UniProt P01569 24-189). In words: cell-based or functional assay.
For the next test, the target named is IFN-αH2 (human, UniProt P01570 24-189). In words: cell-based or functional assay.
For a further test, the target named is IFN-αJ1 (human, UniProt P01567 24-189). Kind of test: cell-based or functional assay.
The target of the next test is IFN-αK (human, UniProt P05013 24-189). In words: cell-based or functional assay.
The target of another test is IFN-αWA (human, UniProt P05015 24-189). In words: cell-based or functional assay.
A further test deals with IFN-α4a (human, UniProt P05014 24-189). In words: cell-based or functional assay.
The next test addresses human IFN-ω (human, UniProt P05000 24-195). In words: cell-based or functional assay.
The next test deals with IFN-αC (human, UniProt P01566 24-189). Kind of test: cell-based or functional assay.
The target of a further test is T1, IFN-αF (human, UniProt P01568 24-189).
T1 chain: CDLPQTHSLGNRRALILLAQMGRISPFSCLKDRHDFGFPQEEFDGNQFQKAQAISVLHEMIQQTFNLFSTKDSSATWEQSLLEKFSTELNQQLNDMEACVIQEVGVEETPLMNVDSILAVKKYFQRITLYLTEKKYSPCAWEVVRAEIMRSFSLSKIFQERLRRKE
In words: cell-based or functional assay.

For the next test, the target named is IFN-αI (human, UniProt P01571 24-189). In words: cell-based or functional assay.
For test [1], the target named is T2, Human IFN-ω T80E variant with a C-terminal 6xHis-Tag (human, UniProt P05000 24-195). Kind of test: complex purified by size exclusion and crystallized, X-ray structure. A general note: Size exclusion chromatography separates by hydrodynamic size, large species first.
In test [2] the target is T2, Human IFN-ω T80E variant with a …. Kind of test: complex purified by size exclusion and crystallized.
Procedure: The Fab was received in 20 mM Tris pH 7.4, 50 mM NaCl. […] The protein was received in 20 mM Tris, pH 7.4, 50 mM NaCL.
Test [3] has the same target. In words: complex crystallized, X-ray structure.

B1: IFWM3522 (antibody, IgG1, V domains shown)
VH: EVQLVQSGAEVKKPGESLKISCKGSGYSFTSYWIGWVRQMPGKGLEWMGIIDPSDSDTRYSPSFQGQVTISADKSISTAYLQWSSLKASDTAMYYCARHPGLNWAPDFDYWGQGTLVTVSS
VL: DIQMTQSPSSLSASVGDRVTITCRASQSIEGALNWYQQKPGKAPKLLIYFASSLQSGVPSRFSGSGSGTDFTLTISSLQPEDFATYYCQQAYDFPLTFGQGTKVEIK
Regarding B1, the “IC50, ISRE reporter gene assay” value with IFN-αG was determined as 57 pM; in the test with IFN-αH2, 34 pM; with IFN-αJ1, 134 pM; with IFN-αK it was 29 pM; with IFN-αWA, 185 pM; with IFN-α4a it was 163 pM. Further, the “IC50, ISRE reporter gene assay” value in the test with human IFN-ω is 53 pM; in the test with IFN-αC it was 77 pM; with IFN-αF, 225 pM; with IFN-αI, 124 pM.

B2: Fab of IFWM3525 (Fab, V domains shown)
VH: EVQLVQSGAEVKKPGESLKISCKGSGYSFTSYWIGWVRQMPGKGLEWMGIIDPSDSDTRYSPSFQGQVTISADKSISTAYLQWSSLKASDTAMYYCARHPGLNWAPDFDYWGQGTLVTVSS
VL: DIQMTQSPSSLSASVGDRVTITCRASQSIDNSYLNWYQQKPGKAPKLLIYGASSLQSGVPSRFSGSGSGTDFTLTISSLQPEDFATYYCQQGYDFPLTFGQGTKVEIK
notes: Fab for crystallography with C-terminal 6xHis tag; also called Fab IFWM3525
On to B2, for which the binding result in [1] is given as “binds”.

B3: Fab IFWM371 (His-tagged, IgG1/kappa isotype) (Fab, V domains shown)
VH: EVQLVQSGAEVKKPGESLKISCKGSGYSFTSYWIGWVRQMPGKGLEWMGIIDPSDSDTRYSPSFQGQVTISADKSISTAYLQWSSLKASDTAMYYCARHPGLNWAPDFDYWGQGTLVTVSS
VL: not shown
notes: His-tagged Fab expressed in HEK293 cells for crystallography; C-terminal 6xHis tag; also called FabM371; Fab of IFWM371
As to B3, in [2], the binding result is reported as “binds”.

B4: IFWM3525 (antibody, IgG1, V domains shown)
VH: EVQLVQSGAEVKKPGESLKISCKGSGYSFTSYWIGWVRQMPGKGLEWMGIIDPSDSDTRYSPSFQGQVTISADKSISTAYLQWSSLKASDTAMYYCARHPGLNWAPDFDYWGQGTLVTVSS
VL: DIQMTQSPSSLSASVGDRVTITCRASQSIDNSYLNWYQQKPGKAPKLLIYGASSLQSGVPSRFSGSGSGTDFTLTISSLQPEDFATYYCQQGYDFPLTFGQGTKVEIK
With B4, the “IC50, ISRE reporter gene assay” value came out at 19 pM with IFN-αG; 15 pM with IFN-αH2; 84 pM with IFN-αJ1; 7 pM in the test with IFN-αK; 66 pM with IFN-αWA; 42 pM with IFN-α4a. Further, the “IC50, ISRE reporter gene assay” value amounted to 19 pM with human IFN-ω, 34 pM with IFN-αC, 82 pM with IFN-αF and 240 pM with IFN-αI.

B5: Fab IFWM3421 (Fab, V domains shown)
VH: EVQLVQSGAEVKKPGESLKISCKGSGYSFTSYWIGWVRQMPGKGLEWMGIIDPSDSDTRYSPSFQGQVTISADKSISTAYLQWSSLKASDTAMYYCARHPGLNWAPDFDYWGQGTLVTVSS
VL: DIQMTQSPSSLSASVGDRVTITCRASQSIDGFLNWYQQKPGKAPKLLIYFASSLQSGVPSRFSGSGSGTDFTLTISSLQPEDFATYYCQQSYDLPITFGQGTKVEIK
notes: also called Fab3421; FabM3421
With B5, the binding result in [3] is “binds”.

(Values after patent US20150368338A1 (Janssen / Centocor, published 2015).)
